The source of these data is patent publication US20230241257A1, “BIOTIN-MODIFIED DIMER AND USE THEREOF” (THE UNIVERSITY OF TOKYO, priority 2020, published 2023).

For assay [1], the target named is T1, Recombinant Human CEACAM-5/CD66e Protein, CF (R & D SYSTEMS) (human, UniProt P06731 35-685).
T1 construct: Bought recombinant protein, immobilized on a CM5 chip by amine coupling (279 RU); also called carcinoembryonic antigen
T1 sequence (looked up): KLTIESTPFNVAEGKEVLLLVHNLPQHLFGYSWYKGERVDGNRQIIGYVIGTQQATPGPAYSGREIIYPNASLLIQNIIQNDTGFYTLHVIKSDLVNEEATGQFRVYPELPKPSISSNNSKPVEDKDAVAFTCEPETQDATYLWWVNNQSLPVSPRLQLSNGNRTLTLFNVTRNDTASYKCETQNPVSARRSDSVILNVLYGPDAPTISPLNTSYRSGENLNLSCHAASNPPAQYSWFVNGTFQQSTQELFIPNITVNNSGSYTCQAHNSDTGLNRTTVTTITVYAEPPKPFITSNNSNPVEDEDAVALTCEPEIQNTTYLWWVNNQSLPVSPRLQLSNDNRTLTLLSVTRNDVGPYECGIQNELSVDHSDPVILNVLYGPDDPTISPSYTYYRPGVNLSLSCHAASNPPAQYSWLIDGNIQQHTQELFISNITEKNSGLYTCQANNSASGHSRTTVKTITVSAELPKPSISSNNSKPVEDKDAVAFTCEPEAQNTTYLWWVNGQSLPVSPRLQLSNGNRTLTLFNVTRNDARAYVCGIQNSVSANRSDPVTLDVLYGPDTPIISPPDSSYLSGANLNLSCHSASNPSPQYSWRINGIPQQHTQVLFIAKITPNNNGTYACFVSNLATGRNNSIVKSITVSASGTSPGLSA
The assay can be described thus: SPR, Biacore T200, CEACAM5 immobilized on CM5, CEA-V2122 as analyte, single-cycle kinetics, bivalent analysis fit (KD = kd1/ka1). On the procedure:
(§1) The affinity of CEA-V2122 for the antigen CEACAM5 was evaluated using a surface plasmon resonance (SPR) measuring device, Biacore T200 (GE Healthcare Life Sciences). Specifically, Recombinant Human CEACAM-5/CD66e Protein, CF (R & D SYSTEMS) was immobilized on Sensor Chip CM5 (GE Healthcare Life Sciences) using an amine-coupling kit (GE Healthcare Life Sciences). The final amount of the ligand immobilized was 279 RU. Moreover, about the purified CEA-V2122, two-fold serial dilutions from 1E-08 M to 6.25E-10 M were prepared as analytes. Regarding interaction analysis, data were obtained by single-cycle kinetics analysis.

Assay [2] addresses T2, Recombinant Human CEACAM-5/CD66e Protein (Homo sapiens, UniProt P06731).
T2 construct: purchased R & D SYSTEMS
T2 sequence (P06731 35-676): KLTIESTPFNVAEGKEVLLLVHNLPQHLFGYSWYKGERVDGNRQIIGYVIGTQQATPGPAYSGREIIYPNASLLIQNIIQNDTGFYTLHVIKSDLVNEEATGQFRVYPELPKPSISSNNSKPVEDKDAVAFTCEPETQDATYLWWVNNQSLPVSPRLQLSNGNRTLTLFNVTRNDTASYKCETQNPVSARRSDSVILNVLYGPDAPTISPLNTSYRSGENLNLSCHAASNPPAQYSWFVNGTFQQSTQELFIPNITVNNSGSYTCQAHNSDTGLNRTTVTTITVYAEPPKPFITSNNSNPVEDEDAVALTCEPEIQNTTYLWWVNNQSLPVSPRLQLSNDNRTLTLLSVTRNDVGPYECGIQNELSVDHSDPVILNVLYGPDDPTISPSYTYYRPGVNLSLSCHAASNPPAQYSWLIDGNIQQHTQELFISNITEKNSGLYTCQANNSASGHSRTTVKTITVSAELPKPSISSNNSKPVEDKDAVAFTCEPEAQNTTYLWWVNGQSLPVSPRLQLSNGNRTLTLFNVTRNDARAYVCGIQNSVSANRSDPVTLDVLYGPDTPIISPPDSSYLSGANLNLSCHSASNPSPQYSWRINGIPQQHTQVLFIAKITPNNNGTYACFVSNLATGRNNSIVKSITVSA
Kind of assay: SPR affinity of CEA-V2122 for the antigen CEACAM5 (Biacore T200). Format: binding. On the procedure:
as §1, with “analysis. Using Biacore T200 Evaluation Software, version 2.0, the obtained data were subjected to curve fitting in a bivalent analysis mode, and the following values were obtained: ka1=3.208E+5, and kd1=3.461E−7.” for “analysis.”

The mark [3] stands for this setting: single-cycle kinetics, bivalent analysis mode.

B1: CEA-V2122 protein (scFv-type anti-CEACAM5 antibody fused to mutant streptavidin V2122 via the linker GGGGSGGGG) (scFv)
scFv: QVKLEQSGAEVVKPGASVKLSCKASGFNIKDSYMHWLRQGPGQRLEWIGWIDPENGDTEYAPKFQGKATFTTDTSANTAYLGLSSLRPEDTAVYYCNEGTPTGPYYFDYWGQGTLVTVSSGGGGSGGGGSGGGGSENVLTQSPSSMSVSVGDRVNIACSASSSVPYMHWLQQKPGKSPKLLIYLTSNLASGVPSRFSGSGSGTDYSLTISSVQPEDAATYYCQQRSSYPLTFGGGTKLEIKGGGGSGGGGAEAGITGTWSDQLGDTFIVTAGADGALTGTYENAVGGAESRYVLTGRYDSAPATDGSGTALGWTVAWKNNSKNAHSATTWSGQYVGGADAKINTQWLLTSGTTNANAWKSTLVGHDTFTKVKPSAASHHHHHH
notes: It was secreted and purified from the culture supernatant through the His tag and Protein L. The purified product is mainly a tetramer of about 150 kDa; also called Cupid-scFv antibody; CEA-Cupid
Take B1: in assay [1], the Kd came to 1.08 pM.

B2: CEA-V2122: scFv-type anti-CEACAM5 antibody bound to mutant streptavidin V2122 via amino acid linker GGGGSGGGG (SEQ ID NO: 3) (protein)
scFv: QVKLEQSGAEVVKPGASVKLSCKASGFNIKDSYMHWLRQGPGQRLEWIGWIDPENGDTEYAPKFQGKATFTTDTSANTAYLGLSSLRPEDTAVYYCNEGTPTGPYYFDYWGQGTLVTVSSGGGGSGGGGSGGGGSENVLTQSPSSMSVSVGDRVNIACSASSSVPYMHWLQQKPGKSPKLLIYLTSNLASGVPSRFSGSGSGTDYSLTISSVQPEDAATYYCQQRSSYPLTFGGGTKLEIKGGGGSGGGGAEAGITGTWSDQLGDTFIVTAGADGALTGTYENAVGGAESRYVLTGRYDSAPATDGSGTALGWTVAWKNNSKNAHSATTWSGQYVGGADAKINTQWLLTSGTTNANAWKSTLVGHDTFTKVKPSAASHHHHHH
On to B2, for which the “KD=kd1/ka1” value in assay [2] (bivalent analysis) came to 1.078E−12. Moreover, in assay [2] (setting [3]), the ka1 worked out at 3.208E+5 and the kd1 turned out to be 3.461E−7.
